The source of these data is patent US20180163180A1, “METHOD OF ENHANCING SOMATIC CELL REPROGRAMMING WITH THE ACETYLLYSINE READER BRD3R” (THE UAB RESEARCH FOUNDATION, INC ., priority 2015, published 2018).

The test system of data set [1] is BJ cells. Kind of data set: Reprogramming of human fibroblasts scored by TRA-1-60+ colonies/clusters. As to conditions: for reprogramming activity (TRA-1-60+ colonies): used with 3F in BJ cells, compared to OSK-GFP control. In kind it is cell-based. Here is the method: Briefly (FIG. 1A), 2×10^4 of BJ cells were seeded in each well of a 24-well plates. The second day, fibroblasts were transduced with OCT4 (10 MOI), SOX2 (5 MOI), KLF4 (5 MOI) along with 250 μl of individual kinase viral supernatant freshly packaged in one well of a 6-well plate. Twenty-two cDNAs were evaluated in one 24-well plate. One well is OSK control, and one well of cells is transduced with OSK plus 250 μl of GFP viral supernatant as a second control. Virus was removed next day with fresh fibroblast medium. Forty-eight hours after transduction, fibroblasts were transferred from one well into a 60-mm dish for continued reprogramming. The next day of re-seeding, fibroblast medium was replaced with E7 medium (E8 minus TGF beta) plus 100 μM of sodium butyrate. From day 18 of reprogramming on, E8 media was used. On day 25 of reprogramming, reprogramming dishes were stained for ALP or TRA-1-60 markers.
• Concentration of virus: The reprogramming viruses (OCT4, SOX2, KLF4, MYC and BET members) were concentrated before use except for library viruses. The lentiviral supernatant was centrifuged at 3,000×g for 10 mins at 4° C. to remove the cell debris. Thirty ml of the viral supernatant was then transferred into each 50-ml tube. 7 ml of 50% PEG-6000 stock solution (final concentration of 8.5%) and 4.1 ml of 4 M NaCl stock solution was added to each tube (final concentration of 0.4 M). The virus mixture was stored at 4° C. for 3-5 h.
• Cell culture and reprogramming: Human fibroblast cells (BJ ATCC CRL-2522®) were cultured in fibroblast medium: DMEM, 10% heat-inactivated FBS, 0.1 mM 2-mercaptoethanol, 100 U/ml penicillin, 100 μg/ml streptomycin, 0.1 mM MEM NEAA and 4 ng/ml human bFGF. For reprogramming, seed BJ cells into 24-well plate at 2×10^4 cells/well. Twenty-four hours after plating, pre-mix the OSK (OCT4, 10 MOI; SOX2, 5 MOI and KLF4, 5 MOI) viruses (shown in FIGS. 6B-6D, SEQ ID NO: 58-60, respectively), and add the OSK virus along with 250 μl supernatant of individual kinase virus into respective wells. Incubate overnight. Next morning, remove viruses by replacing virus-containing medium with fresh fibroblast medium. Twenty-four hours after transduction, the cells were re-seeded from one well into one matrigel-coated 60-mm dish. Next day, replace fibroblast medium with reprogramming media (E7 plus sodium butyrate at 100 μM). On 18 day, start to use E8 media. On day 25 of reprogramming, stain the reprogramming cells for alkaline phosphatase or TRA-1-60.

Data set [2] concerns the target T1, tetra-acetylated H4 (H4K5/8/12/16Ac) (Homo sapiens, UniProt P62805).
T1 construct: Histone tails used for peptide pull-down experiments; Peg-biotin (chemical label); incubated with lysate of human BJ fibroblasts transduced with BRD3R or BRD3 virus
The experiment in a line: Histone peptide pull-down assay. In kind it is binding. As to conditions: lysates of human fibroblasts overexpressing BRD3R or BRD3; western with BRD3 antibody. Here is the method:
• Histone peptide pull-down assay: H3 or H4 histone tails with 8 different acetylation modifications were evaluated for binding with BRD3R and BRD3. One unmodified tail for each histone was used for negative control.
Human BJ fibroblasts were transduced with BRD3 or BRD3R viruses. Three days post-transduction, cells were lysed by non-denaturing lysis buffer (20 mM HEPES pH 7.9, 150 mM NaCl, 1 mM MgCl2, 0.5% NP40, 10 mM NaF, 0.2 mM NaVO4, 10 mM β-glycerol phosphate, 5% glycerol, 1 mM DTT, 1 mM PMSF and protease inhibitors). Twenty μg of the cell lysates were incubated with 1 μg biotinylated peptide in 300 μl binding buffer (50 mM Tris pH 7.5, 150 mM NaCl, 0.1% NP-40, 1 mM PMSF and protease inhibitors) at 4° C. for overnight. The next day, 30 μl of Dynabeads M-280 Streptavidin was added into each sample (Invitrogen, 11205D). The mixture of proteins, antibodies and beads were further incubated with gentle rotation at 4° C. for 1 h. The beads were then washed with binding buffer three times. The bound proteins were resuspended in 60 μl of 2× SDS sample buffer. The pull-down proteins were analyzed by western using antibody of BRD3 (Proteintech, 11859-1-AP). Two micrograms of cell lysates were loaded as input control. For semi-quantification, band density was normalized to the corresponding inputs.

Data set [3] has as its system BJ cells. Kind of data set: Sensitivity test of the optimized small-vessel reprogramming protocol (ALP staining). Format: cell-based, human. The conditions noted are these: n=3. An excerpt:
• Optimization of screening protocol: Several strategies to make the screening of cDNA library more efficient and sensitive were used. First, the lentiviral reprogramming vector was modified so that it is more efficient and consistent in reprogramming human cells. This was achieved by using EF1a promoter and co-expression of GFP, which makes titration of viral vectors easier and faster. Second, the efficient Gateway cloning was used to transfer the human kinase library onto the modified lentiviral destination vector. 24 randomly selected of the 89 cloned cDNAs were sequenced, and verified precise cloning for all of the 24 genes. Third, a protocol to simultaneously package 24×n individual transgene viruses in individual wells of 6-well plates was established. The kinase virus was not concentrated and the supernatant directly used in screening protocol. Almost 100% of transduction of BJ cells in one well of a 24-well plate with 250 μl of supernatant using GFP reporter construct on the same destination vector (FIGS. 6J and 6K) was achieved. […] To test the sensitivity of the new screening protocols, the reprogramming activities of two established reprogramming factors: NANOG and LIN28, were evaluated. […]
Briefly (FIG. 1A), 2×10^4 of BJ cells were seeded in each well of a 24-well plates. […] Twenty-two cDNAs were evaluated in one 24-well plate. […]

The test system of a further data set is BRD3R mRNA. Kind of data set: Knockdown of BRD3R mRNA by shRNA (RT-qPCR). In kind it is cell-based, human. Here is the method:
• shRNA cloning: BRD3R shRNAs at XbaI and HpaI sites on the shRNA vector PLVH-U6-EF1a-AcGFP were cloned. Correct cloning was verified by sequencing. An shRNA targeting the firefly luciferase was used as a control.
• RT-qPCR: Cells were harvested with Trizol reagent and stored at −80° C. until use. Total RNA was extracted using the Direct-zol™ Miniprep kit (R2052). cDNA was prepared using the M-MLV reverse transcriptase (cat #28025-013) per manufacturer's instruction. Quantitative PCR was performed on ViiA 7 Real-time PCR system (Applied Biosystem) using SYBR-Green Master PCR mix (Clontech, Cat #639676) in triplicates. All quantifications were normalized to an endogenous GAPDH control.
In general terms: In qPCR the cycle at which signal appears reflects the starting amount.

On to BRD2: BET subfamily bromodomain protein, for which the “reprogramming activity (TRA-1-60+ colonies)” value with BJ cells [1] is recorded as “none did”.

As for “BRD3: canonical BRD3 (NP_031397; 726 aa, SEQ ID NO: 45), BET bromodomain protein”, the “reprogramming activity (TRA-1-60+ colonies)” value in the data set on BJ cells [1] is on record as “none did”. In data set [2], the “binding to H4K5/8/12/16Ac peptide” value was “weaker than BRD3R”.

As for “NANOG: established reprogramming factor [reference compound]”, the “increase in reprogramming efficiency” value with BJ cells [3] worked out at 5.1 ×.

B1: LIN28: established reprogramming factor (protein, UniProt Q9H9Z2 2-209, looked up)
Protein lin-28 homolog A: GSVSNQQFAGGCAKAAEEAPEEAPEDAARAADEPQLLHGAGICKWFNVRMGFGFLSMTARAGVALDPPVDVFVHQSKLHMEGFRSLKEGEAVEFTFKKSAKGLESIRVTGPGGVFCIGSERRPKGKSMQKRRSKGDRCYNCGGLDHHAKECKLPPQPKKCHFCQSISHMVASCPLKAQQGPSAQGKPTYFREEEEEIHSPTLLPEAQN
For the molecule B1, the “increase in reprogramming efficiency” value in the data set on BJ cells [3] amounted to 2.4 ×.

B2: BRD3R shRNA: shRNA that specifically targets BRD3R (SEQ ID NO: 42 and 43) (nucleic acid)
chain 1: CTAGGAACCTCTGTAATTGTTTCCTGGCTCGAGCCAGGAAACAATTACAGAGGTTCTTTTTT
chain 2: AAAAAAGAACCTCTGTAATTGTTTCCTGGCTCGAGCCAGGAAACAATTACAGAGGTTC
In the data set with BJ cells [1] (BRD3R knockdown by shRNA, TRA-1-60 staining), B2 returned an impairment of reprogramming of 58%. The “knockdown of BRD3R mRNA” value in the data set with BRD3R mRNA is on record as “significant knockdown”.
